“Also recorded” adds a separate entry of the source. Like-named read-outs stand apart in the source and are kept apart here.
What was measured:
[1] = test system: liver; experiment: FasL and APAP induced mouse liver injury, histological analysis of liver sections; format: in vivo; conditions: mice, intraperitoneal; FasL 0.15 μg/g, 4 h; APAP 700 mg/Kg, 8 h
Procedure: FIG. 4. CPS1 is released into serum during FasL and APAP induced mouse liver injury. Mice were injected with FasL (0.15 μg/g) and APAP (700 mg/Kg) and sacrificed after 4 h and 8 h, respectively. Liver damage was analyzed serologically, biochemically and histologically. Panel A: Immunoblots of serum CPS1, HMGB1 and caspase activation using total liver lysate. Coomassie stain of serum IgG heavy chain (just above the 50 kDa prominent species) and IgG light chain (25 kDa), and an actin blot of total liver lysates are included as loading controls. Serum ALT of the individual mice is also indicated (bottom of panel). Panel B: Hematoxylin and eosin stained liver sections. […] Scale bar=40 μm.
(§1) Primary hepatocytes from mice were isolated (Snider et al. J Cell Biol 195: 217-29, 2011.; herein incorporated by reference in its entirety). […] Serum ALT levels were determined using a Vetscan-vs2 instrument (ABAXIS) using the comprehensive diagnostic profile cartridge or using Unit for Laboratory Animal Medicine (ULAM) core facility at University of Michigan. […]
Mice were injected with FasL in saline (to induce apoptosis), or with APAP in DMSO (to induced necrosis) or were injected with vehicle (saline or DMSO). The serum and liver histology were then analyzed. For both the APAP and FasL conditions, CPS1 was more easily detected in the serum of the mice and parallels the elevation of ALT (FIG. 4A). […]

[2] = test system: primary mouse hepatocytes; experiment: Viable cell count by trypan blue staining of treated primary hepatocytes; format: cell-based; conditions: FasL 0.5 μg/ml, APAP 1 mM
Procedure: FIG. 2. Primary hepatocytes release CPS1 in response to difference types of liver injury. A: Primary mouse hepatocytes were cultured in the presence of hypoosmotic media (200 mOsm/L), FasL (0.5 μg/ml), and acetaminophen (APAP, 1 mM). The concentrated cell culture media and total cell lysates were used for immunoblotting with antibodies to the indicated proteins. B: After each treatment as in panel A, the viable cell count was determined using trypan blue staining after trypsin treatment. Each bar represents the mean of 10 to 15 fields. […] C: Mouse hepatocytes were challenged with FasL, APAP and hypoosmosis as in Panel A. Cells were fixed and immunostained with CPS1 (red) and counter stained with DAPI (blue). Arrows highlight areas with less dense CPS1 staining. Scale bar=20 μm.
as §1, with “entirety). The liver was perfused with 3-5 ml of perfusion media through the portal vein with a flow rate of 3 ml/min followed by perfusion with 15-20 ml of digestion media containing 150 units/ml of collagenase-II (Worthington) at the same flow rate.” for “entirety).”

[3] = test system: liver; conditions: mice fed 0.1% DDC for 10 days, 15 days, 6 weeks, 3 months
Procedure: Serum CPS1 in chronic liver injury. Panel A: The presence of serum CPS1 and HMGB1 was tested in animals exposed to the hepatotoxin DDC for 10 days, 15 days, 6 weeks and 3 months. Corresponding serum ALT values are also included. […] Each lane corresponds to serum from separate mice. Two mice for each time point were shown except the control. Panel B: Hematoxylin and eosin staining of livers from control and DDC-administered mice. Scale bar=40 μm. Panels C and D: Human sera from patients with chronic hepatitis B virus infection (HBV), chronic hepatitis C infection (HCV), or controls were analyzed for the presence of CPS1 and HMGB1. Serum from APAP and from control donors with normal ALT were used as positive and negative controls, respectively. […] Each lane represents separate patients or donors.
To test the CPS1 release during chronic mouse liver injury, mice were fed 0.1% DDC (a porphyrinogenic hepatotoxin) for 10-days, 15-days, 6-weeks and 3-months and serum CPS1 levels were analyzed.

[4] = rats; cited from earlier work
[5] = Half-life of CPS1 in mouse serum after FasL injection (western blot densitometry); format: in vivo
Procedure: FIG. 6. CPS1 has a short half-life in mouse serum. In order to determine the half-life of CPS1 in mouse serum, mice (five total) were injected with FasL (0.075 μg/g) and blood was collected from the same animal via tail vain at the indicated time points. Sera were used to determine serum ALT, or mixed with 2× SDS sample buffer to measure circulating serum CPS1 by western blot analysis. CPS1 pixel intensity (CPS1 OD) at each time point was determined by densitometry scanning. Panels A-D: Immunoblots of time-dependent serum CPS1 levels of four individual mice are shown. CPS1 OD and serum ALT values at each time point are indicated. A Coomassie stain of serum is included as loading control. To determine the half-life of serum CPS1, the OD values of 24 h to 32 h of all five mice were used. Assuming an exponential decay, half-life of CPS1 for each time interval was calculated using the equation; Ending amount=Beginning amount/[…]; where n=number of half-lives. […]
as §1

CC(=O)Nc1ccc(O)cc1 [APAP, acetaminophen]
liver histology (hematoxylin and eosin) [1]: necrotic cell death
cell death (viable cell count, trypan blue) [2]: significant cell deaths

CCOC(=O)C1=C(C)NC(C)=C(C(=O)OCC)C1C [DDC]
liver histology (hematoxylin and eosin) [3]: early evidence of cell drop off at days 10 and 15

FasL: Fas ligand, which induces hepatocyte cell death (apoptosis)
liver histology (hematoxylin and eosin) [1]: marked liver hemorrhage; also recorded: severe hemorrhage formation

B1: CPS1: most abundant mitochondrial matrix protein of liver, urea cycle enzyme; serum biomarker of acute liver injury (protein, UniProt P31327 39-1500, looked up)
Carbamoyl-phosphate synthase …: LSVKAQTAHIVLEDGTKMKGYSFGHPSSVAGEVVFNTGLGGYPEAITDPAYKGQILTMANPIIGNGGAPDTTALDELGLSKYLESNGIKVSGLLVLDYSKDYNHWLATKSLGQWLQEEKVPAIYGVDTRMLTKIIRDKGTMLGKIEFEGQPVDFVDPNKQNLIAEVSTKDVKVYGKGNPTKVVAVDCGIKNNVIRLLVKRGAEVHLVPWNHDFTKMEYDGILIAGGPGNPALAEPLIQNVRKILESDRKEPLFGISTGNLITGLAAGAKTYKMSMANRGQNQPVLNITNKQAFITAQNHGYALDNTLPAGWKPLFVNVNDQTNEGIMHESKPFFAVQFHPEVTPGPIDTEYLFDSFFSLIKKGKATTITSVLPKPALVASRVEVSKVLILGSGGLSIGQAGEFDYSGSQAVKAMKEENVKTVLMNPNIASVQTNEVGLKQADTVYFLPITPQFVTEVIKAEQPDGLILGMGGQTALNCGVELFKRGVLKEYGVKVLGTSVESIMATEDRQLFSDKLNEINEKIAPSFAVESIEDALKAADTIGYPVMIRSAYALGGLGSGICPNRETLMDLSTKAFAMTNQILVEKSVTGWKEIEYEVVRDADDNCVTVCNMENVDAMGVHTGDSVVVAPAQTLSNAEFQMLRRTSINVVRHLGIVGECNIQFALHPTSMEYCIIEVNARLSRSSALASKATGYPLAFIAAKIALGIPLPEIKNVVSGKTSACFEPSLDYMVTKIPRWDLDRFHGTSSRIGSSMKSVGEVMAIGRTFEESFQKALRMCHPSIEGFTPRLPMNKEWPSNLDLRKELSEPSSTRIYAIAKAIDDNMSLDEIEKLTYIDKWFLYKMRDILNMEKTLKGLNSESMTEETLKRAKEIGFSDKQISKCLGLTEAQTRELRLKKNIHPWVKQIDTLAAEYPSVTNYLYVTYNGQEHDVNFDDHGMMVLGCGPYHIGSSVEFDWCAVSSIRTLRQLGKKTVVVNCNPETVSTDFDECDKLYFEELSLERILDIYHQEACGGCIISVGGQIPNNLAVPLYKNGVKIMGTSPLQIDRAEDRSIFSAVLDELKVAQAPWKAVNTLNEALEFAKSVDYPCLLRPSYVLSGSAMNVVFSEDEMKKFLEEATRVSQEHPVVLTKFVEGAREVEMDAVGKDGRVISHAISEHVEDAGVHSGDATLMLPTQTISQGAIEKVKDATRKIAKAFAISGPFNVQFLVKGNDVLVIECNLRASRSFPFVSKTLGVDFIDVATKVMIGENVDEKHLPTLDHPIIPADYVAIKAPMFSWPRLRDADPILRCEMASTGEVACFGEGIHTAFLKAMLSTGFKIPQKGILIGIQQSFRPRFLGVAEQLHNEGFKLFATEATSDWLNANNVPATPVAWPSQEGQNPSLSSIRKLIRDGSIDLVINLPNNNTKFVHDNYVIRRTAVDSGIPLLTNFQVTKLFAEAVQKSRKVDSKSLFHYRQYSAGKAA
half-life of CPS1 [4]: 1.12 h
average half-life of CPS1 in mouse serum ([5]; mice injected with FasL 0.075 μg/g, OD values of 24 h to 32 h of five mice, mean±standard error of mean): 2.1 ± 0.15 h
half-life of CPS1 in mouse serum ([5]; mice, FasL treatment 0.075 μg/g, combination of turnover and ongoing release): ~2.1 h
